Reference: the NTF2 design screens of Basanta et al. (2020)

Experiment: protease stability score; higher = more stable; yeast display proteolysis, trypsin and chymotrypsin;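 further: relative to predicted unfolded state with 0 unfolded-like and 1 meaning tenfold more protease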

| Sequence | protease stability score |
| --- | --- |
| DDQEEWAKIAMEMILEFLKTGDEELMLELLDPNVRVHLLIDGRHFEDHGRKATRWVIRFIKNVQVKIHNIEYQGDKVHIDVHVDVNGRKTRSREIWTLVDGRIEHVDVQDR | 1.2 |
| DDQEKLVRKAWELLVRHLHTGDEEHLDKLIDPNTRMTYNGRETHGMELFSHLMTHLRVKDMDLKEVRIVDGRAILDGHLHGEIDGRETTTRTTYIILKIDGRWFVKSVRFE | 1.15 |
| DDRDEVVEVASRLWMEIVETGDEDLFIRLLDPRTRIHIGDKTLHGREQVLDFLREHNRNLGIDRVEVRVERTEIQGEKVVVHSINIFNGKEWHVITIAHKINGRWITKEFHLH | 0.834 |
| DDRDREARKLIQEITHALHTGDEELMEHMLDPSVRTNINGKDIHGMDLFYKWLIELVRRLGADHLNFEVKRVQLYGNKLNTDGHLFVHQGDFTILLNVRWYNLKVNGKWIHESIEIR | 1.45 |
| DDREEDLHKALHLFRMTMLTGNEDLFRDLADPHTRVSVNGQELIGREHMEHWWKRVDHIEDSRLERVDIVDGVVLVDGRFVGTVNGRRIDTEYTIFAQKVNGQWILHSVKIV | 1.19 |
| DDREEELQHLMELILFLLVTGNEEIWMRMADPDVKSRISIGDKQETYHGRETVARYMIHERHFYKNIQVKFDDVQVQGDKVIVILTFHWNGREIEVIHTFIVINGKLTSWEVRFIHR | 1.42 |
| DDREEELRKMTELMLKAEQTGDEDHWMHLADPHVRVIVNGREFIGREEWARHHEEHRRKVKNIRIHVRIRDSEVQGDKLILDTELELRIGDKTIIRDVEINMTIINGRLRSLEIRIK | 1.17 |
| DDREEHAKELVDLFQKVMLTGDFKTLEELIDPNYRLHVNGQDVHGMERVIRHIFHMRFQDVKVKRIDHQGNKIDMDVRSIVNVDGRLHEHEIQLIALKVDGRWTVKSLEVH | 1.48 |
| DDREEKIKRAWETFVHNVRTGDEDSNEELADPNVKVLFNGREFHGMEQLSKFFKHLRVHDFVLKDIRVVGDKVHVEGLVDGEINGKRELTTMHMVFIKFNGRWIIQSVEFK | 1.53 |
| DDREKDSKREVKEFLEMFITGDEERWSKMADPNVRLHFDGVESHGREEALRIMRLLLEQFKNLKVTDVQLTSIEIQGEKALIRTRIHTEVNGKEDSLDVILFATKFDGRWIINSIEIR | 1.1 |
| DDREKETQEFFERWVEAFITGDEHDLHEMLDPHARIHLIIGDKKEDLHGRESAVEVMKRIDHKHEFRIRHLWIFDGRIHVDVKLTGHFDGRTYQHDVHINIKIVDGKIHSIQIEWR | 2.22 |
| DDREKFWKELAKEWFKSLITGDEDSLRKLLDPDVRTIVGDWHIHGMEEVLKFWLELRISDHDSKRIIVINGVNLNDIRSNGNVNGVERETRVELIIEVVDGRVRRVEFRMK | 2.01 |
| DDREKLWHRLVELEKELWLTGDFEDFHSLADPNVQLIVHFDGQEVHYHGRESVTMALKILREQLGADHFEPKSVHYQGNKMQTSMILFVNGREFEFRLTLFVIDGRLKSHHIEWK | 1.48 |
| DDREKYLTKLMELFIEHWRTGDEEAFLEYFDPHVRIEHIFNGQETRRHGRELFSILLTHEWLFFKNVRIHWKRSEVQGEKTVIHMELHVGDKSLKVRIHLDVVDGRVRSVNIEIE | 0.548 |
| DDRERATRELLKLLWDAMKTGDEELFYKLADPDTRMIINGRELHGMEEVSRILLELLTHMRLKNITIRDIDVQGDKVDVHGELHGEVGDKSHTFETHIIILKVNGKWVLRSYIIR | 1.55 |
| DDRERDLRELFKRLHEVLETGNEEEMTELIDPHARRTVGDKKIHGRELIAKHLVHEVLRYDHWHLEMHDWRFQGEKIELHGNFRIEVDGKQIVIDTRLTATKVDGRWRITEIRII | 0.743 |
| DDRERDSREAQEILREILLTGDFKTLYELADPHYRHNWDGRTIHGMETIVKLFLDLGMEIRDMRFRHLEIQGDFIHLDVDINGRINGKEKNVKIRVHARKIDGRWVLHSSERD | 1.38 |
| DDRERERHRFLRELHESLETGDERELTRMLDPHARWVVGDKQHHGRETLTKFVSEVALRADHFHIEISRVREQGEFIDIDVRVILIIGDKVITIDQRLINLKVDGRWFLHERIVH | 1.05 |

| Sequence | protease stability score |
| --- | --- |
| DDRERESEEALRLFIETLETGDEHWLKRLMDPNARLHQGEKTIHGMDIFSTWVVEARLKHYHLERVHIQGDKMDVESHVDGHVNGQRLKVQLIFHSLKIDGRWLVKHIIVH | 1.4 |
| DDRERESKEAVEFFLHAVDTGDFDRIREMLDPHMRVEIDGQEFHGRERALDLIHKEMFDLGVDRIRIEIHDMELVDGRVEVDVHVDVNGRIIRSEYIMKKIDGRWRIHSIKRR | 1.98 |
| DDRERLTKLMSDDFIFSMLTGDEHFMHELIDPHARFLFNGQVHHGWKTMEFWREHLGIDNIHLQIRISDLEIQGDKATVRIDGEVKQGDKSFRTRFIIKVDKIDGRWVIHELRIIVL | 1.07 |
| DDRERQAESMMHLWLEVLLTGDEDRLMKLADPNTRHHVNGVDAHGRENIKRVAKEFDEQMRIHRVEIRQVRIIGDKTEVDGRVDVEVNGRRRDTETHLRVIVIDGRIHEVHLIIR | 0.725 |
| DDRESIAEAVIRHMVEDFRTGNEDNMKRLFDPNTQLRYGDKTHHGWEDVVELLYHDIKHFGIKHVSVDRISVIGEKIHIDMRVEVGDKELTLHFTVDKINGKWKFESVERR | 0.849 |
| DDRHEENKEITRRQFELFETGDEEILHHLADPHVRLRIDGQHNHGREELERSLRELRKELGANVLILRRIRVIGDKMEVEGEFDYNGRNFHATFRFNVIDGRLHSMSIEIR | 0.832 |
| DDRIRQVVEEWWKAVETNDPDKAKENVDKDVRVEVGDKQFRGSETLEKRIRDEKDHARVVVRMQSVSVHGDTVDVTYNVVVEVNGNPLRFKAQAFFRARNGRMQSIQFSFSKEDKKRVDG | 1.78 |
| DDRKEMSEEASEIFLHLLATGDERTERKLLDPHVRLIIGDKHLHGREEFVRFKHEEMRDLGVTNVEVREKDVKVYDGKIELHGHFNVNGKWVEIHVIAEKFNGRWILKRVNFH | 0.875 |
| DDRKKEAHELFEFLLDVFRTGDEKSTEELLDPHTRNVIGDKHYHGRDVWVTFMKKFKNAKVHFNHLEVQGDKVTFDITFEIGDKTHRMRFFLEKYDGRWFIKEIQVD | 1.44 |
| DDRKKEAQRILELFLKIWETGDEEELLKLLDPNVKLHIGDKNIHGMEEATRILTENVREIRTHIVHKRVHIQGDKVELEGELRIHVNGREESNRVHYELIVVNGKVKAIHVHLE | 1.16 |
| DDRSEHAIHAFYEWWERFLTGDEKRLYELADPNTRLHVNGQRIHGMEEIMERILDLLKRVKNMRVDFDVRDVELQGDKIILRIEIILKYNGQKVRIDVHIISRKINGRWFLEQEREE | 0.558 |
| DDRYRLVEHMSRHFFENWLTGDFDRLVELADPTVRSHFEYGDKEILNIGMEEHVKMERHWREKMGANHLFLDDVRIQGNKAHIHGQLDVGDKHNRARLELNIVDGRIKEIYIEIR | 0.018 |
| DDSAKWTEIALKIKSHDSDTGNEEKIRRLLDPNVRIEINGQEIHGRDKISKWLSEIRIQIEHVDTERYELQGNKAIVDGRMHIKVSYGDKEMHFDIKFEIEVHKVDGQWLIHSERII | 0.754 |
| DDSDEHTKRATDELRHNLRTGDEERILKLVDPNARIDINGVKVIGWHMVEELVRKFWEEMRVEELEIHDMKVYGDKAIVDGYVEQRQGNKFIYIKTEIIKVKIDGRWILTELRFR | 0.57 |
| DDSDQANKIMLEVLRRKLDTGDEDSIRKLADPHARIVIGDKTIHGMDEHTNELRHMLELWGVDRVELHIRHVEKQGDKLRVDGELHFNGVSVRVIFLHEKINGRWFMRHTEIR | 0.984 |
| DDSEEDALRILELLSDSMETGNWRLVSELLDPHVRLEVGDKTWVGMEEMKRLANQIRIHVHRVKFHHIDNFNGRVRVDGHIHGEIIVGDKIYRFRTRIEIDAVKINGQWVIEEMRIG | 1.61 |
| DDSEEHAEEVVRELSESLRTGDEKSVDRLLDPNVKFIINGVEYVGRELFLELFKKTLEEIRIESIEVTHIDIQGEKVRLETKEHAIINGKRFQFKTEVIMRKVNGRWEIQELRFE | 1.98 |
| DDSEHWARRFIHLLKRSLETGDEHLNKELADPHARIEVNGRELHGREDFSETLVRMGFNHVHITDFDVQGDKIELHIETDVGDKKIQVEFIVEKVNGRWLNRSMHIRIH | 0.832 |
